Where a chain is given by its changes, count along the chain named. Like-named read-outs stand apart in the source and are kept apart here.
T1: MtAlba(I39) (Methanothermobacter thermautotrophicus …, UniProt O27527 1-91)
T1 sequence: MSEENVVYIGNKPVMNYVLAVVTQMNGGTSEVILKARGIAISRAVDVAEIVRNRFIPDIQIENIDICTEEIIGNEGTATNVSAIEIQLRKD

T2: MtAlba(R39) (Methanothermobacter thermautotrophicus, UniProt O27527 1-91, I39R)
T2 sequence: T1 sequence with I39R

B1: 36 bp dsDNA (dsDNA)
DNA 1: ATCAATTAAAGCGTTCTACGGCGTTTTAGATCTGAT
DNA 2: ATCAGATCTAAAACGCCGTAGAACGCTTTAATTGAT
B2: tRNAPro (structured_RNA)
RNA: GGGCGAGUAGCGCAGCUUGGUAGCGCAACUGGUUUGGGACCAGUGGGUCGGAGGUUCGAAUCCUCUCUCGUCCACCA
B3: ssRNA (ssRNA)
RNA: UUAAAGCCCGUGGAAGAGCC

Experiments:
Assay in all cases: EMSA
MtAlba(I39) [1] = target: T1, MtAlba(I39)
MtAlba(R39) = target: T2, MtAlba(R39)
MtAlba(I39) [2] = target: T1, MtAlba(I39); remark: listed apart in the source

Row | Binder | binding result (MtAlba(I39) [1]) | Kd (MtAlba(R39)) [nM] | binding result (MtAlba(I39) [2])
1 | B1 | no binding | ~200 | –
2 | B2 | – | ~1000 | no binding
3 | B3 | – | ~1500 | no binding

— paper PMC3735172
